From publication doi:10.1101/2023.04.06.535920 (bioRxiv, 2023)

Target: T1, Fc-tagged recombinant mouse FGL1 full length (mouse, UniProt Q71KU9 23-314)
T1 sequence (looked up): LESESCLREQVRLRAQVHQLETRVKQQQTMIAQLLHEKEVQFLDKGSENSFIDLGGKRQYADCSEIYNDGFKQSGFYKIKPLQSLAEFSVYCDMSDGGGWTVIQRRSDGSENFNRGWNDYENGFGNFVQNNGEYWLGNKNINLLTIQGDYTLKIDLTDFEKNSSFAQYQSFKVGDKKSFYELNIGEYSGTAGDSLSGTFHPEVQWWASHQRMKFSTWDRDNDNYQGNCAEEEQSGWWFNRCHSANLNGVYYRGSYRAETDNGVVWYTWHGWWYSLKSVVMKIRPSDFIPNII
Test: pull-down

B1: hBMP6 (ligand, human, UniProt P22004 375-513, looked up)
chain: SASSRRRQQSRNRSTQSQDVARVSSASDYNSSELKTACRKHELYVSFQDLGWQDWIIAPKGYAANYCDGECSFPLNAHMNATNHAIVQTLVHLMNPEYVPKPCCAPTKLNAISVLYFDDNSNVILKKYRNMVVRACGCH
- binding result: binds
